Assay results from article PMC3437384.
Values belong to the substance of their own block, whether it stands above or below them.

Columns and labels:
[1] = target: N-domain of cardiac troponin C with the L48Q mutation, cNTnC(L48Q) (UniProt P63316); experiment: NMR titration
[2] = target: cTnI switch peptide 147-163 (Homo sapiens) (UniProt P19429); experiment: NMR; conditions: cited from earlier work
[3] = target: cardiac troponin I (cTnI), rat wild type (rat) (UniProt P23693); experiment: ITC
cardiac troponin I (cTnI), rat wild type (rat), sequence (P23693 whole entry): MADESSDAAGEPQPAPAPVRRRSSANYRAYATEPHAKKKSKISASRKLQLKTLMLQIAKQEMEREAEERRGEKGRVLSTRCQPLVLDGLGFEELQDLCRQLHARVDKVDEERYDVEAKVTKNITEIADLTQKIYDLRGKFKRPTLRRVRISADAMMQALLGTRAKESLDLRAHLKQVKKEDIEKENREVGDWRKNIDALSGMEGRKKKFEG

Kd [1]: 61 µM
Substance: cTnI peptide corresponding to residues 147-163, cTnI_(147-163) switch peptide

Substance: cNTnC N-terminal domain (from UniProt P63316)
Kd [2]: 150 µM

Kd [3]: 0.132 µM
dH [3]: -5.28 kcal/mol
Substance: cardiac troponin C L48Q variant, cTnC(L48Q) (from UniProt Q4PP99 1-161) (natural protein)
